From the Human Domainome abundance scans (Beltran et al. 2025) come the findings set out here.

The chains are these.
B1: E3 ubiquitin-protein ligase NEDD4-like, residues 539 to 589; numbered along this chain, Q96PU5 (parent)
chain: KTSLNPNDLGPLPPGWEERIHLDGRTFYIDHNSKITQWEDPRLQNPAITGP

± gives the uncertainty stated by the source.

In the data set the parent is B1. Kind of data set: abundance fitness (aPCA) (normalised: wild type 0, dead -1); higher = more abundant; growth selection in yeast, the domain comes from the species named. Particulars: Homo sapiens.
Turning to Q44G, the abundance fitness was -0.022 ± 0.05. As to Q44V, the abundance fitness is -0.114 ± 0.05. Take Q44M: the abundance fitness was -0.049 ± 0.083. In the case of Q44S, the abundance fitness is -0.054 ± 0.053. For the variant Q44H, the abundance fitness was -0.155 ± 0.059. As to Q44W, the abundance fitness is -0.27 ± 0.068. As for Q44D, the figure is 0.028 ± 0.082; as for Q44E, 0.074 ± 0.053; as for Q44I, -0.016 ± 0.092.

With Q44T, the abundance fitness is -0.078 ± 0.064. For Q44K the value was 0.11 ± 0.097; for Q44F, -0.218 ± 0.079; for Q44N, -0.091 ± 0.046. For Q44Y the value was -0.336 ± 0.12. On to Q44A, for which the abundance fitness was -0.028 ± 0.072. As for Q44P, the abundance fitness was -0.135 ± 0.054.

With Q44R, the abundance fitness was -0.039 ± 0.041. In the case of Q44C, the abundance fitness is -0.15 ± 0.08.

P41M: the abundance fitness is -0.367 ± 0.098. As for P41D, the abundance fitness is -0.98 ± 0.17. As for P41I, the figure is -1.28 ± 0.13; as for P41R, -0.758 ± 0.057; as for P41S, -0.827 ± 0.063. Turning to P41A, the abundance fitness is -0.947 ± 0.078.

With P41C, the abundance fitness was -0.672 ± 0.12. As for P41N, the abundance fitness was -0.86 ± 0.17. As for P41G, the abundance fitness is -0.742 ± 0.049.

For the variant P41H, the abundance fitness was -1.08 ± 0.26. P41Y: the abundance fitness is -1.15 ± 0.28. P41K: the abundance fitness was -0.868 ± 0.14.

Take P41T: the abundance fitness was -0.875 ± 0.079. P41V: the abundance fitness is -0.848 ± 0.052. Regarding P41Q, the abundance fitness was -1.14 ± 0.13. For P41E, the abundance fitness was -0.718 ± 0.082. Turning to P41F, the abundance fitness is -1.1 ± 0.1. For P41W, the abundance fitness was -1.11 ± 0.067. For the variant D40T, the abundance fitness was -0.919 ± 0.11. On to D40E, for which the abundance fitness is -0.587 ± 0.069. D40K: the abundance fitness is -0.585 ± 0.1. As for D40P, the figure is -0.401 ± 0.056; as for D40I, -0.574 ± 0.13. Take D40L: the abundance fitness was -0.654 ± 0.071. For D40M, the abundance fitness was -0.639 ± 0.11. For D40F the value was -0.566 ± 0.11; for D40G, -0.731 ± 0.062. For D40Q the value was -0.878 ± 0.13. For D40C, the abundance fitness was -0.639 ± 0.051. Regarding D40A, the abundance fitness was -0.528 ± 0.052. As for D40S, the abundance fitness was -0.492 ± 0.058. With D40H, the abundance fitness was -0.16 ± 0.054. Turning to D40V, the abundance fitness is -0.706 ± 0.052. As to D40Y, the abundance fitness is -0.53 ± 0.045. For A47S the value was -0.04 ± 0.068. As to A47F, the abundance fitness is -0.204 ± 0.07.

Consider A47N, for which the abundance fitness stood at 0.011 ± 0.11. A47H: the abundance fitness was 0.235 ± 0.12. A47D: the abundance fitness was determined as 0.218 ± 0.089. On to A47W, for which the abundance fitness is -0.296 ± 0.055.

Consider A47I, for which the abundance fitness is -0.167 ± 0.083.

Turning to A47G, the abundance fitness worked out at 0.01 ± 0.045. Turning to A47M, the abundance fitness was -0.212 ± 0.072.

As to A47V, the abundance fitness was -0.042 ± 0.047. With A47Q, the abundance fitness is 0.193 ± 0.083. As for A47P, the figure is 0.008 ± 0.065; as for A47C, -0.049 ± 0.074.

As to A47T, the abundance fitness is -0.056 ± 0.065.

As to A47K, the abundance fitness was -0.204 ± 0.097. As for A47L, the abundance fitness was -0.083 ± 0.045. Consider A47R, for which the abundance fitness came out at 0.004 ± 0.053. In the case of A47E, the abundance fitness was -0.002 ± 0.068. Turning to I48L, the abundance fitness was -0.123 ± 0.47. As to I48G, the abundance fitness is 0.025 ± 0.054.

Consider I48M, for which the abundance fitness was -0.176 ± 0.21. As to I48T, the abundance fitness stood at 0.051 ± 0.21. As for I48Q, the figure is 1.1 ± 0.46; as for I48F, -0.306 ± 0.43. For I48V the value was 0.132 ± 0.31; for P46K, 0.028 ± 0.075. On to P46S, for which the abundance fitness is -0.048 ± 0.054. Take P46W: the abundance fitness is -0.249 ± 0.069.

Turning to P46Q, the abundance fitness was -0.27 ± 0.11.

P46C: the abundance fitness was -0.098 ± 0.046. Regarding P46F, the abundance fitness is -0.228 ± 0.075.

As for P46I, the abundance fitness is -0.171 ± 0.07. Consider P46V, for which the abundance fitness was -0.014 ± 0.064. For P46D the value was -0.028 ± 0.086; for P46H, -0.105 ± 0.096. As for P46T, the abundance fitness is -0.051 ± 0.076.

On to P46M, for which the abundance fitness came to 0.084 ± 0.11. As for P46N, the abundance fitness is -0.263 ± 0.11.

Regarding P46Y, the abundance fitness is -0.317 ± 0.11. As for P46A, the figure is -0.06 ± 0.048; as for P46E, -0.39 ± 0.091. As to P46G, the abundance fitness came out at 0.01 ± 0.053. With P46L, the abundance fitness was found to be 0.161 ± 0.065. As to G50A, the abundance fitness was found to be 0.012 ± 0.067. As for G50E, the abundance fitness was found to be 0.223 ± 0.14. With G50C, the abundance fitness was -0.329 ± 0.12. For G50D the value was 0.029 ± 0.076; for T49M, -0.091 ± 0.055. On to T49P, for which the abundance fitness was -0.135 ± 0.071. Turning to T49K, the abundance fitness was -0.267 ± 0.095. Consider T49H, for which the abundance fitness was -0.089 ± 0.11. Regarding T49A, the abundance fitness was -0.121 ± 0.059. For T49Q, the abundance fitness is -0.199 ± 0.092.

With T49R, the abundance fitness was -0.042 ± 0.044. For T49D the value was -0.086 ± 0.1; for T49I, -0.226 ± 0.12. Turning to T49G, the abundance fitness is -0.045 ± 0.054. On to T49N, for which the abundance fitness is -0.313 ± 0.13. For T49V the value was -0.198 ± 0.061. In the case of T49Y, the abundance fitness was -0.286 ± 0.093. As to T49E, the abundance fitness is -0.144 ± 0.091. For T49W, the abundance fitness is -0.213 ± 0.063. Consider T49L, for which the abundance fitness is -0.104 ± 0.052. Turning to T49S, the abundance fitness is -0.077 ± 0.069. As for T49F, the figure is -0.165 ± 0.068; as for R42C, -0.847 ± 0.12; as for R42S, -0.661 ± 0.053. For R42E, the abundance fitness is -0.752 ± 0.052. Regarding R42Y, the abundance fitness is -1.05 ± 0.067. With R42P, the abundance fitness was -0.474 ± 0.083. R42M: the abundance fitness was -0.718 ± 0.06. In the case of R42F, the abundance fitness was -1.09 ± 0.19. For the variant R42W, the abundance fitness was -1.18 ± 0.087. In the case of R42G, the abundance fitness is -0.656 ± 0.046. As for R42L, the figure is -0.787 ± 0.058.

Regarding R42H, the abundance fitness was -0.67 ± 0.096. Regarding R42T, the abundance fitness was -0.71 ± 0.053. On to R42K, for which the abundance fitness is -0.352 ± 0.11. For R42N the value was -0.687 ± 0.22. In the case of R42D, the abundance fitness was -1.15 ± 0.25.

As to L43E, the abundance fitness was -0.042 ± 0.073. As for L43I, the figure is -0.256 ± 0.084. Regarding L43M, the abundance fitness is -0.153 ± 0.073. As for L43W, the abundance fitness is -0.333 ± 0.073. For L43R, the abundance fitness was -0.116 ± 0.056. On to L43Q, for which the abundance fitness was -0.144 ± 0.091. In the case of L43N, the abundance fitness was -0.183 ± 0.084.

L43T: the abundance fitness was -0.069 ± 0.066.

L43P: the abundance fitness is -0.089 ± 0.079. Consider L43G, for which the abundance fitness was -0.086 ± 0.05. With L43D, the abundance fitness was -0.139 ± 0.1.

In the case of L43C, the abundance fitness was -0.11 ± 0.078.

For L43F, the abundance fitness is -0.104 ± 0.087. Regarding L43V, the abundance fitness was -0.088 ± 0.071. For L43H the value was -0.131 ± 0.12; for L43A, 0.007 ± 0.071; for L43Y, -0.192 ± 0.1.

On to N45H, for which the abundance fitness was -0.068 ± 0.063.

On to N45W, for which the abundance fitness is -0.331 ± 0.064.

For N45Q, the abundance fitness is -0.102 ± 0.063.

Regarding N45F, the abundance fitness is -0.634 ± 0.12.

With N45T, the abundance fitness was -0.007 ± 0.066. N45S: the abundance fitness is -0.011 ± 0.044. As for N45A, the figure is -0.028 ± 0.074. Take N45R: the abundance fitness was 0.003 ± 0.059. Turning to N45V, the abundance fitness is -0.106 ± 0.058. With N45M, the abundance fitness was -0.163 ± 0.083. Take N45D: the abundance fitness is -0.213 ± 0.076. As for N45K, the abundance fitness was determined as 0.029 ± 0.047.

Regarding N45G, the abundance fitness was -0.045 ± 0.064.

On to N45Y, for which the abundance fitness was -0.157 ± 0.1.

On to N45C, for which the abundance fitness was -0.103 ± 0.084. For N45E the value was -0.046 ± 0.053.

On to N45L, for which the abundance fitness was -0.094 ± 0.04. On to N45I, for which the abundance fitness is -0.099 ± 0.088.
